Values quoted from earlier work in patent publication US20220184026A1, “COMPOSITIONS OF FULVIC ACID AND CANNABINOID AND USES THEREOF” (Omni Bioceutical Innovations, Inc., priority 2019, published 2022).
Read-outs that look alike come from different tables or passages of the source.

B1: transforming growth factor-β2 (protein, UniProt P61812 303-414, looked up)
Transforming growth factor …: ALDAAYCFRNVQDNCCLRPLYIDFKRDLGWKWIHEPKGYNANFCAGACPYLWSSDTQHSRVLSLYNTINPEASASPCCVSQDLEPLTILYYIGKTPKIEQLSNMIVKSCKCS
B2: platelet-derived growth factor BB (protein, UniProt P01127 82-190, looked up)
Platelet-derived growth …: SLGSLTIAEPAMIAECKTRTEVFEISRRLIDRTNANFLVWPPCVEVQRCSGCCNNRNVQCRPTQVQLRPVQVRKIEIVRKKPIFKKATVTLEDHLACKCETVAAARPVT

Test system: chronic wounds
Set-up: key: N.S. = not statistically significant

Molecule	Results (Robson et al., venous wounds (n=36), 2.5 μg/cm^2 three times per week)	Results (Mustoe et al., pressure wounds (n=45), 1 and 3 μg/mL daily)	Results (Robson et al., pressure wounds (n=20), 1, 10, and 100 μg/mL daily)
B1	N.S.	–	–
B2	–	N.S.	N.S.
